To fix the notation:
B1: CIgG4F1A1(G4S)2 (Fc fusion)
chain 1: GPPCPPCPAPEFLGGPSVFLFPPKPKDTLMISRTPEVTCVVVDVSQEDPEVQFNWYVDGVEVHNAKTKPREEQFNSTYRVVSVLTVLHQDWLNGKEYKCKVSNKGLPSSIEKTISKAKGQPREPQVYTLPPCQEEMTKNQVSLWCLVKGFYPSDIAVEWESNGQPENNYKTTPPVLDSDGSFFLYSRLTVDKSRWQEGNVFSCSVMHEALHNHYTQKSLSLSLGKGGGGSGGGGSDVQLQESGGGLVQAGGSLKLSCAASGGSLSRYDMGWFRQAPGKEREFVARISWSGTTKYYADAVKGRFAISRDNAKNTVYLQMNSLKPEDTAVYYCAAAFYGNRGYYDVNAYTSSGQGTQVTVS
chain 2: GPPCPPCPAPEFLGGPSVFLFPPKPKDTLMISRTPEVTCVVVDVSQEDPEVQFNWYVDGVEVHNAKTKPREEQFNSTYRVVSVLTVLHQDWLNGKEYKCKVSNKGLPSSIEKTISKAKGQPREPQVCTLPPSQEEMTKNQVSLSCAVKGFYPSDIAVEWESNGQPENNYKTTPPVLDSDGSFFLVSRLTVDKSRWQEGNVFSCSVMHEALHNHYTQKSLSLSLGKGGGGSGGGGSEVQLLESGGGLVQPGGSLRLSCAASGFTFGNYDMAWVRQAPGKRPEWVSSIDTGGDITHYADSVKGRFTISRDNAKNTLYLQMNSLRPEDTAVYWCATDEEYALGPNEFDYYGQGTLVTVSS
B2: CIgG4F1A1(RS) (Fc fusion)
chain 1: GPPCPPCPAPEFLGGPSVFLFPPKPKDTLMISRTPEVTCVVVDVSQEDPEVQFNWYVDGVEVHNAKTKPREEQFNSTYRVVSVLTVLHQDWLNGKEYKCKVSNKGLPSSIEKTISKAKGQPREPQVYTLPPCQEEMTKNQVSLWCLVKGFYPSDIAVEWESNGQPENNYKTTPPVLDSDGSFFLYSRLTVDKSRWQEGNVFSCSVMHEALHNHYTQKSLSLSLGKRSDVQLQESGGGLVQAGGSLKLSCAASGGSLSRYDMGWFRQAPGKEREFVARISWSGTTKYYADAVKGRFAISRDNAKNTVYLQMNSLKPEDTAVYYCAAAFYGNRGYYDVNAYTSSGQGTQVTVS
chain 2: GPPCPPCPAPEFLGGPSVFLFPPKPKDTLMISRTPEVTCVVVDVSQEDPEVQFNWYVDGVEVHNAKTKPREEQFNSTYRVVSVLTVLHQDWLNGKEYKCKVSNKGLPSSIEKTISKAKGQPREPQVCTLPPSQEEMTKNQVSLSCAVKGFYPSDIAVEWESNGQPENNYKTTPPVLDSDGSFFLVSRLTVDKSRWQEGNVFSCSVMHEALHNHYTQKSLSLSLGKRSEVQLLESGGGLVQPGGSLRLSCAASGFTFGNYDMAWVRQAPGKRPEWVSSIDTGGDITHYADSVKGRFTISRDNAKNTLYLQMNSLRPEDTAVYWCATDEEYALGPNEFDYYGQGTLVTVSS
B3: CIgG4F1A1(G4S)1 (Fc fusion)
chain 1: GPPCPPCPAPEFLGGPSVFLFPPKPKDTLMISRTPEVTCVVVDVSQEDPEVQFNWYVDGVEVHNAKTKPREEQFNSTYRVVSVLTVLHQDWLNGKEYKCKVSNKGLPSSIEKTISKAKGQPREPQVYTLPPCQEEMTKNQVSLWCLVKGFYPSDIAVEWESNGQPENNYKTTPPVLDSDGSFFLYSRLTVDKSRWQEGNVFSCSVMHEALHNHYTQKSLSLSLGKGGGGSDVQLQESGGGLVQAGGSLKLSCAASGGSLSRYDMGWFRQAPGKEREFVARISWSGTTKYYADAVKGRFAISRDNAKNTVYLQMNSLKPEDTAVYYCAAAFYGNRGYYDVNAYTSSGQGTQVTVS
chain 2: GPPCPPCPAPEFLGGPSVFLFPPKPKDTLMISRTPEVTCVVVDVSQEDPEVQFNWYVDGVEVHNAKTKPREEQFNSTYRVVSVLTVLHQDWLNGKEYKCKVSNKGLPSSIEKTISKAKGQPREPQVCTLPPSQEEMTKNQVSLSCAVKGFYPSDIAVEWESNGQPENNYKTTPPVLDSDGSFFLVSRLTVDKSRWQEGNVFSCSVMHEALHNHYTQKSLSLSLGKGGGGSEVQLLESGGGLVQPGGSLRLSCAASGFTFGNYDMAWVRQAPGKRPEWVSSIDTGGDITHYADSVKGRFTISRDNAKNTLYLQMNSLRPEDTAVYWCATDEEYALGPNEFDYYGQGTLVTVSS
B4: NIgG4F1A1(G4S)2 (Fc fusion)
chain 1: DVQLQESGGGLVQAGGSLKLSCAASGGSLSRYDMGWFRQAPGKEREFVARISWSGTTKYYADAVKGRFAISRDNAKNTVYLQMNSLKPEDTAVYYCAAAFYGNRGYYDVNAYTSSGQGTQVTVSGGGGSGGGGSGPPCPPCPAPEFLGGPSVFLFPPKPKDTLMISRTPEVTCVVVDVSQEDPEVQFNWYVDGVEVHNAKTKPREEQFNSTYRVVSVLTVLHQDWLNGKEYKCKVSNKGLPSSIEKTISKAKGQPREPQVYTLPPCQEEMTKNQVSLWCLVKGFYPSDIAVEWESNGQPENNYKTTPPVLDSDGSFFLYSRLTVDKSRWQEGNVFSCSVMHEALHNHYTQKSLSLSLGK
chain 2: EVQLLESGGGLVQPGGSLRLSCAASGFTFGNYDMAWVRQAPGKRPEWVSSIDTGGDITHYADSVKGRFTISRDNAKNTLYLQMNSLRPEDTAVYWCATDEEYALGPNEFDYYGQGTLVTVSSGGGGSGGGGSGPPCPPCPAPEFLGGPSVFLFPPKPKDTLMISRTPEVTCVVVDVSQEDPEVQFNWYVDGVEVHNAKTKPREEQFNSTYRVVSVLTVLHQDWLNGKEYKCKVSNKGLPSSIEKTISKAKGQPREPQVCTLPPSQEEMTKNQVSLSCAVKGFYPSDIAVEWESNGQPENNYKTTPPVLDSDGSFFLVSRLTVDKSRWQEGNVFSCSVMHEALHNHYTQKSLSLSLGK
B5: NIgG4F2A1(RS) (Fc fusion)
chain 1: DVQLQESGGGLVQAGGSLKLSCAASGGSLSRYDMGWFRQAPGKEREFVARISWSGDTKYYADAVEGRFAISRDNAQNTVYLQMNSLKPEDTAVYYCAVALYGNRGYYDVNTYSYWGQGTRVTVSRSGPPCPPCPAPEFLGGPSVFLFPPKPKDTLMISRTPEVTCVVVDVSQEDPEVQFNWYVDGVEVHNAKTKPREEQFNSTYRVVSVLTVLHQDWLNGKEYKCKVSNKGLPSSIEKTISKAKGQPREPQVYTLPPCQEEMTKNQVSLWCLVKGFYPSDIAVEWESNGQPENNYKTTPPVLDSDGSFFLYSRLTVDKSRWQEGNVFSCSVMHEALHNHYTQKSLSLSLGK
chain 2: EVQLLESGGGLVQPGGSLRLSCAASGFTFGNYDMAWVRQAPGKRPEWVSSIDTGGDITHYADSVKGRFTISRDNAKNTLYLQMNSLRPEDTAVYWCATDEEYALGPNEFDYYGQGTLVTVSSRSGPPCPPCPAPEFLGGPSVFLFPPKPKDTLMISRTPEVTCVVVDVSQEDPEVQFNWYVDGVEVHNAKTKPREEQFNSTYRVVSVLTVLHQDWLNGKEYKCKVSNKGLPSSIEKTISKAKGQPREPQVCTLPPSQEEMTKNQVSLSCAVKGFYPSDIAVEWESNGQPENNYKTTPPVLDSDGSFFLVSRLTVDKSRWQEGNVFSCSVMHEALHNHYTQKSLSLSLGK
B6: NIgG4F2A1(G4S)1 (Fc fusion)
chain 1: DVQLQESGGGLVQAGGSLKLSCAASGGSLSRYDMGWFRQAPGKEREFVARISWSGDTKYYADAVEGRFAISRDNAQNTVYLQMNSLKPEDTAVYYCAVALYGNRGYYDVNTYSYWGQGTRVTVSGGGGSGPPCPPCPAPEFLGGPSVFLFPPKPKDTLMISRTPEVTCVVVDVSQEDPEVQFNWYVDGVEVHNAKTKPREEQFNSTYRVVSVLTVLHQDWLNGKEYKCKVSNKGLPSSIEKTISKAKGQPREPQVYTLPPCQEEMTKNQVSLWCLVKGFYPSDIAVEWESNGQPENNYKTTPPVLDSDGSFFLYSRLTVDKSRWQEGNVFSCSVMHEALHNHYTQKSLSLSLGK
chain 2: EVQLLESGGGLVQPGGSLRLSCAASGFTFGNYDMAWVRQAPGKRPEWVSSIDTGGDITHYADSVKGRFTISRDNAKNTLYLQMNSLRPEDTAVYWCATDEEYALGPNEFDYYGQGTLVTVSSGGGGSGPPCPPCPAPEFLGGPSVFLFPPKPKDTLMISRTPEVTCVVVDVSQEDPEVQFNWYVDGVEVHNAKTKPREEQFNSTYRVVSVLTVLHQDWLNGKEYKCKVSNKGLPSSIEKTISKAKGQPREPQVCTLPPSQEEMTKNQVSLSCAVKGFYPSDIAVEWESNGQPENNYKTTPPVLDSDGSFFLVSRLTVDKSRWQEGNVFSCSVMHEALHNHYTQKSLSLSLGK
B7: CIgG4F1A1(G4S)3 (Fc fusion)
chain 1: GPPCPPCPAPEFLGGPSVFLFPPKPKDTLMISRTPEVTCVVVDVSQEDPEVQFNWYVDGVEVHNAKTKPREEQFNSTYRVVSVLTVLHQDWLNGKEYKCKVSNKGLPSSIEKTISKAKGQPREPQVYTLPPCQEEMTKNQVSLWCLVKGFYPSDIAVEWESNGQPENNYKTTPPVLDSDGSFFLYSRLTVDKSRWQEGNVFSCSVMHEALHNHYTQKSLSLSLGKGGGGSGGGGSGGGGSDVQLQESGGGLVQAGGSLKLSCAASGGSLSRYDMGWFRQAPGKEREFVARISWSGTTKYYADAVKGRFAISRDNAKNTVYLQMNSLKPEDTAVYYCAAAFYGNRGYYDVNAYTSSGQGTQVTVS
chain 2: GPPCPPCPAPEFLGGPSVFLFPPKPKDTLMISRTPEVTCVVVDVSQEDPEVQFNWYVDGVEVHNAKTKPREEQFNSTYRVVSVLTVLHQDWLNGKEYKCKVSNKGLPSSIEKTISKAKGQPREPQVCTLPPSQEEMTKNQVSLSCAVKGFYPSDIAVEWESNGQPENNYKTTPPVLDSDGSFFLVSRLTVDKSRWQEGNVFSCSVMHEALHNHYTQKSLSLSLGKGGGGSGGGGSGGGGSEVQLLESGGGLVQPGGSLRLSCAASGFTFGNYDMAWVRQAPGKRPEWVSSIDTGGDITHYADSVKGRFTISRDNAKNTLYLQMNSLRPEDTAVYWCATDEEYALGPNEFDYYGQGTLVTVSS
B8: NIgG4F1A1(G4S)3 (Fc fusion)
chain 1: DVQLQESGGGLVQAGGSLKLSCAASGGSLSRYDMGWFRQAPGKEREFVARISWSGTTKYYADAVKGRFAISRDNAKNTVYLQMNSLKPEDTAVYYCAAAFYGNRGYYDVNAYTSSGQGTQVTVSGGGGSGGGGSGGGGSGPPCPPCPAPEFLGGPSVFLFPPKPKDTLMISRTPEVTCVVVDVSQEDPEVQFNWYVDGVEVHNAKTKPREEQFNSTYRVVSVLTVLHQDWLNGKEYKCKVSNKGLPSSIEKTISKAKGQPREPQVYTLPPCQEEMTKNQVSLWCLVKGFYPSDIAVEWESNGQPENNYKTTPPVLDSDGSFFLYSRLTVDKSRWQEGNVFSCSVMHEALHNHYTQKSLSLSLGK
chain 2: EVQLLESGGGLVQPGGSLRLSCAASGFTFGNYDMAWVRQAPGKRPEWVSSIDTGGDITHYADSVKGRFTISRDNAKNTLYLQMNSLRPEDTAVYWCATDEEYALGPNEFDYYGQGTLVTVSSGGGGSGGGGSGGGGSGPPCPPCPAPEFLGGPSVFLFPPKPKDTLMISRTPEVTCVVVDVSQEDPEVQFNWYVDGVEVHNAKTKPREEQFNSTYRVVSVLTVLHQDWLNGKEYKCKVSNKGLPSSIEKTISKAKGQPREPQVCTLPPSQEEMTKNQVSLSCAVKGFYPSDIAVEWESNGQPENNYKTTPPVLDSDGSFFLVSRLTVDKSRWQEGNVFSCSVMHEALHNHYTQKSLSLSLGK

This experiment deals with mixture of three Der p 2 specific recombinant human IgE clones H10, H12, P4E (human) (UniProt P01854). The experiment in a line: RBL-SX38 IgE displacement, FACS.
Sequence of mixture of three Der p 2 specific recombinant human IgE clones H10, H12, P4E (human) (P01854 other isoform, or with tags, fused parts or gaps): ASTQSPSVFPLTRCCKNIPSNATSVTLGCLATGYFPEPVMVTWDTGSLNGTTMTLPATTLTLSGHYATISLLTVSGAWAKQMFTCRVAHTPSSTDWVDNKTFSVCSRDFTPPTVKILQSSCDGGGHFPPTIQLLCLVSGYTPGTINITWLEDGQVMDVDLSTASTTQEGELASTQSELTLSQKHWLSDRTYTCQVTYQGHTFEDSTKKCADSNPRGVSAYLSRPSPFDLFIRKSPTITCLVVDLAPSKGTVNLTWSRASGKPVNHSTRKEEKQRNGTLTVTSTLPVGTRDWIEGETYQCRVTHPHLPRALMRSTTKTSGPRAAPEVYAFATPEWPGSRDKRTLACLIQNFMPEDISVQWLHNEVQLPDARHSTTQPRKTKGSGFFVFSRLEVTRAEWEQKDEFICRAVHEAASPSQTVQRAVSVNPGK
For the molecule B1, the Max effect/effect 1 µM came out at 18%. Same read-out and setting: as for B2, the figure is 0%; as for B3, 8%. Take B4: the EC50 came out at 2.1 nM and the Max effect/effect 1 µM stood at 95%. The matching figures for B5: 2 nM and 88%. The matching figures for B6: 2 nM and 92%. On to B7, for which the Max effect/effect 1 µM was 0%.

For the molecule B8, the EC50 came to 35.5 nM and the Max effect/effect 1 µM worked out at 92%.

(Values after US20250171562A1.)
